According to US20220273713A1, “METHOD OF INHIBITING OR ACTIVATING GAMMA DELTA T CELLS” (The University of Melbourne, priority 2019, published 2022):

Experiments:
[1] = tested on: LM-MEL-62 and LM-MEL-75 melanoma cells; test: Tumor killing/inhibition assay: γδ T cells with melanoma cells 2:1, MTS and CD25; format: cell-based, human; details: γδ T cells : melanoma cells 2:1, three days, antibody 10 ug/ml
Method: In the following experiments, γδ T cells were enriched by MACS using PE-Cy7-conjugated anti-γδTCR followed by anti-phycoerythrin-mediated magnetic bead purification (Miltenyi Biotec). After enrichment CD3^+ Vδ2^+γδ T cells were further purified by sorting using an Aria III (BD). […] LM-MEL-62 and LM-MEL-75 melanoma cells were plated out 1×10^4 per well in a 96 well flat-bottom plate In RPMI1640 media supplemented with 10% FBS and left to adhere overnight. […] All conditions were repeated in triplicate. Cells were incubated at 37 degrees and on day 3 Vd2+ cells were acquired by flow cytometry. Live cells were gated and activation determined by analysis of CD25 expression. Melanoma cell viability was determined by MTS assay. MTS reagent was added to RPMI media at a 1:5 ratio and 100 ul added per well. Cells were incubated at 37 degrees for 30 minutes and the plate was read on a Spectrostar nano plate reader at 490 nm. […] Cultures were performed with γδ T cells and melanoma cells (LM-MEL-75 or LM-MEL-62) in a 2:1 ratio.

[2] = tested on: γδ T cells; test: Identification of BTN2A1 agonistic antibodies: CD25 and interferon γ of expanded γδ T cells; format: cell-based, human; details: 10 μg/ml antibody overnight, vs isotype control BM4
Method: In some experiments γδ T cells were enriched by MACS using PE-Cy7-conjugated anti-γδTCR followed by anti-phycoerythrin-mediated magnetic bead purification (Miltenyi Biotec). After enrichment CD3+Vδ2+ γδ T cells were further purified by sorting using an Aria III (BD). Enriched γδ T cells were stimulated in vitro for 48 h with plate-bound anti-CD3ε (OKT3, 10 ug/ml, Bio-X-Cell), soluble anti-CD28 (CD28.2, 1 ug/ml, BD Pharmingen), phytohemagglutinin (0.5 μg/ml, Sigma), IL-15 (50 ng/ml), and recombinant human IL-2 (100 U/ml, PeproTech), followed by maintenance with IL-2 and IL-15 for 14-21 d. Cells were cultured in complete medium consisting of a 50:50 (v/v) mixture of RPMI-1640 and AIM-V (Invitrogen) supplemented with 10% (v/v) FCS (JRH Biosciences), penicillin (100 U/ml), streptomycin (100 μg/ml), Glutamax (2 mM), sodium pyruvate (1 mM), nonessential amino acids (0.1 mM), and HEPES buffer (15 mM), pH 7.2-7.5 (all from Invitrogen Life Technologies), plus 50 μM 2-mercaptoethanol (Sigma-Aldrich).
The inventors screened the panel of antibodies specific for BTN2A1, as described above, to identify those able to agonise BTN2A1. The inventors assessed the ability of anti-BTN2A1 antibodies to activate γδ T cells. The inventors assessed upregulation of CD25 on the surface of previously expanded γδ T cells following culturing the cells with 10 μg/ml anti-BTN2A1 antibodies or isotype control antibody (BM4) overnight.
The inventors additionally measured levels of interferon γ secreted by γδ T cells following culture in the presence of 10 μg/ml anti-BTN2A1 antibodies or isotype control antibody (BM4) overnight. Interferon γ secretion is another indicator of TCR-dependent activation.

B1: antibody 259: agonistic anti-BTN2A1 antibody; VL SEQ ID NO: 156, VH SEQ ID NO: 160 (antibody, V domains shown)
VH: EVQLLESGGGLVQPGGSLRLSCAASGFTFSSYAMQWVRQAPGKGLEWVSRIGPSGGGTMYADSVKGRFTISRDNSKNTLYLQMNSLRAEDMAVYYCARDLGGLSVLFDYWGQGTLVTVSS
VL: QSELTQPPSASETPGQRVTISCSGSSSNIGSNTVSWFQQLPGSAPRLLIYNDHRRPSGVPDRFSGSKSGTSASLVISGLQSQDEADYYCSAWDDSLNGVVFGGGTKLTVL
modifications: amino acid sequence of the VH of antibody 259; amino acid sequence of the VL of antibody 259
CD25 level of expression on γδ T cells in co-culture [1]: upregulated | level of secreted interferon γ [2]: increase the level of secreted interferon γ | percentage of γδ T cells expressing CD25 [2]: increase the percentage of γδ T cells expressing CD25
